From patent US20130005666A1

Target: Neh2-luciferase fusion protein (human; firefly)

Substance: FLAG-labeled Keap1 expressed from an adenovirus
- background luminescence of the Neh2-luc reporter cell line (fold decrease): 3.5
